Consider two substances from article PMC11890025.

The subject of the series is SaAREB6-His (Santalum album). Briefly: MST. As to conditions: MST: 20 nM labelled SaAREB6, 150 mM NaCl, 20 mM Tris-HCl pH 8.0, 25 C; EMSA: LightShift Chemiluminescent kit, buffer not stated. (A gel shift assay detects complexes by their altered migration in electrophoresis.)

By Kd is commonly meant the constant that tells how readily two partners part at equilibrium.

For SaCYP736A167 promoter R2 (MST), the Kd came to 24.8 µM.
As for SaCYP736A167 promoter R1 (MST), the Kd was 4.81 µM.
